Test results: the supplement of paper PMC9112550, “Optimization of the antimicrobial peptide Bac7 by deep mutational scanning” (BMC Biology, 2022)

Test system: Escherichia coli TOP10
Test: shrunken log2 fold change of peptide-encoding DNA abundance (4.5 h post-induction vs induction); higher = less antimicrobial activity (less host growth inhibition)
Conditions: time post-induction: 4.5 h; library: site-saturation at positions 5, 18, 19, 20
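Further: peptides expressed intracellularly from a pBAD plasmid library in pooled LB shake-flask culture, induced with 0.3% L-arabinose, DNA abundance read by NGS, three biological replicates, DESeq2 with apeglm shrinkage.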

| Sequence | shrunken log2 fold change |
| --- | --- |
| RRIRERPPRLPRPRPRPWDAPRP | -0.379 |
| RRIRVRPPRLPRPRPRPIEPPRP | -0.065 |
| RRIRSRPPRLPRPRPRPEFEPRP | 0.731 |
| RRIRNRPPRLPRPRPRPFFIPRP | -0.586 |
| RRIRIRPPRLPRPRPRPMRSPRP | 0.000106 |
| RRIRSRPPRLPRPRPRPYLCPRP | -0.627 |
| RRIRERPPRLPRPRPRPNLQPRP | -0.208 |
| RRIRPRPPRLPRPRPRPWNFPRP | -0.205 |
| RRIRIRPPRLPRPRPRPVTTPRP | -0.0229 |
| RRIRSRPPRLPRPRPRPAFQPRP | -0.0696 |
| RRIRDRPPRLPRPRPRPLNQPRP | -0.009 |
| RRIRTRPPRLPRPRPRPMFTPRP | -0.253 |
| RRIRVRPPRLPRPRPRPGTVPRP | 0.421 |
| RRIRGRPPRLPRPRPRPPDAPRP | 1.45 |
| RRIRERPPRLPRPRPRPQSVPRP | -0.0488 |
| RRIRIRPPRLPRPRPRPNCCPRP | -0.0793 |
| RRIRTRPPRLPRPRPRPQGSPRP | -0.0161 |
| RRIRERPPRLPRPRPRPEEKPRP | -0.0137 |
| RRIRMRPPRLPRPRPRPNVFPRP | 0.136 |
| RRIRHRPPRLPRPRPRPLKEPRP | -0.0179 |
| RRIRFRPPRLPRPRPRPAPAPRP | 0.674 |
| RRIRPRPPRLPRPRPRPHEVPRP | -0.0664 |
| RRIRKRPPRLPRPRPRPQGNPRP | 0.0216 |
| RRIRPRPPRLPRPRPRPCMSPRP | -0.0701 |
| RRIRDRPPRLPRPRPRPLDHPRP | 0.0841 |

| Sequence | shrunken log2 fold change |
| --- | --- |
| RRIRQRPPRLPRPRPRPHDPPRP | 0.142 |
| RRIRKRPPRLPRPRPRPEFVPRP | 0.587 |
| RRIRTRPPRLPRPRPRPPPCPRP | 0.292 |
| RRIRFRPPRLPRPRPRPVYVPRP | -0.93 |
| RRIRTRPPRLPRPRPRPQGQPRP | -0.186 |
| RRIRDRPPRLPRPRPRPPQFPRP | -0.15 |
| RRIRTRPPRLPRPRPRPLNGPRP | -0.235 |
| RRIRIRPPRLPRPRPRPYLHPRP | -1.61 |
| RRIRHRPPRLPRPRPRPHHNPRP | -0.672 |
| RRIRKRPPRLPRPRPRPVVNPRP | 0.000998 |
| RRIRTRPPRLPRPRPRPFAKPRP | -0.0867 |
| RRIRIRPPRLPRPRPRPYFQPRP | -0.511 |
| RRIRKRPPRLPRPRPRPWADPRP | -0.017 |
| RRIRARPPRLPRPRPRPWNYPRP | -0.625 |
| RRIRCRPPRLPRPRPRPCMAPRP | -0.427 |
| RRIRDRPPRLPRPRPRPTNKPRP | -0.0409 |
| RRIRGRPPRLPRPRPRPRARPRP | 1.09 |
| RRIRERPPRLPRPRPRPQGLPRP | -0.141 |
| RRIRDRPPRLPRPRPRPVVDPRP | 0.104 |
| RRIRWRPPRLPRPRPRPEGTPRP | 0.103 |
| RRIRERPPRLPRPRPRPTCLPRP | -0.233 |
| RRIRHRPPRLPRPRPRPLQNPRP | -0.00367 |
| RRIRMRPPRLPRPRPRPETSPRP | 0.163 |
| RRIRDRPPRLPRPRPRPPHDPRP | 2.35 |
| RRIRDRPPRLPRPRPRPDCVPRP | 0.381 |

| Sequence | shrunken log2 fold change |
| --- | --- |
| RRIRIRPPRLPRPRPRPTALPRP | 0.0424 |
| RRIRSRPPRLPRPRPRPCWGPRP | 0.109 |
| RRIRPRPPRLPRPRPRPVAHPRP | 0.0324 |
| RRIRCRPPRLPRPRPRPCNCPRP | -0.278 |
| RRIRQRPPRLPRPRPRPASYPRP | -0.121 |
| RRIRARPPRLPRPRPRPSRLPRP | 0.487 |
| RRIRVRPPRLPRPRPRPTKDPRP | -0.303 |
| RRIRARPPRLPRPRPRPDLIPRP | 0.235 |
| RRIRQRPPRLPRPRPRPEGQPRP | -0.0666 |
| RRIRRRPPRLPRPRPRPHDRPRP | 0.103 |
| RRIRCRPPRLPRPRPRPEIPPRP | 0.0317 |
| RRIRDRPPRLPRPRPRPGVIPRP | -0.00423 |
| RRIRSRPPRLPRPRPRPDIFPRP | -0.135 |
| RRIRKRPPRLPRPRPRPVFCPRP | -0.126 |
| RRIRWRPPRLPRPRPRPRDLPRP | 0.276 |
| RRIRTRPPRLPRPRPRPLFLPRP | -0.184 |
| RRIRIRPPRLPRPRPRPTNIPRP | -0.237 |
| RRIRFRPPRLPRPRPRPADAPRP | 0.147 |
| RRIRTRPPRLPRPRPRPDDSPRP | -1.36 |
| RRIRDRPPRLPRPRPRPTNIPRP | -0.271 |
| RRIRIRPPRLPRPRPRPPTSPRP | -0.172 |
| RRIRERPPRLPRPRPRPHMDPRP | -1.21 |
| RRIRARPPRLPRPRPRPHSQPRP | 0.0561 |
| RRIRFRPPRLPRPRPRPPAPPRP | 1.07 |
| RRIRERPPRLPRPRPRPLTRPRP | 0.167 |
